Measured values taken from PMC4310620.

Legend:
Assay in all cases: purified protein
Assay type in all cases: biochemical, Chromohalobacter israelensis
[1] = substrate: C[C@H](N)CO; conditions: 50 mM L-glutamate, 5 mM ATP, 15 mM MgCl2, pH 7.9, 25 °C
[2] = substrate: NCCO; conditions: 50 mM L-glutamate, 5 mM ATP, 15 mM MgCl2, pH 7.9, 25 °C
[3] = substrate: N[C@@H](CCC(=O)O)C(=O)O; conditions: 20 mM ethanolamine, 5 mM ATP, 15 mM MgCl2, pH 7.9, 25 °C

B1: Csal_0679 (Chromohalobacter israelensis DSM 3043) (protein)
chain: MTNTLALDDLKTRVESGEIDTVLVCIVDMQGRLMGKRLHARHFVDHGWEETHCCNYLLATDLEMATPGGYASTSWQAGYGDYIMKPDLATLRCVPWLEGTAMVLCDLLDHRTHAEVPHAPRAILKRQLARLEAMGLEAIMATELEFFLFEKSLDEIRKGRFRDLQPISGYNEDYHIFQTTKEEHVLRPLRNHLHAAGIPVEGTKGEAGAGQEELNIRCAKALDTADYHTIAKHATKEIAWQQGRAVTFLSKWHHAHAGSSSHIHQSLWKQGLPAFHDERDALGMSALMKHYLAGLLKYAPDYTYFLAPYLNSYKRFQKGTFAPTRTVWSVDNRTAGFRLCAEGTRAVRIECRIGGSDLNPYLAMAGQLAAGIKGIEECLALPPPAEGDTYEGGSGLIPQNLRDAMEALRGSTMLREAMGEDVVDHYVRAAEVELEDFQRVVSDYEVARGFERC
[1]
  Km: 100 ± 10 µM
  kcat: 0.35 ± 0.01 s⁻¹
  kcat/Km: 3400 M⁻¹ s⁻¹
[2]
  Km: 34 ± 4 µM
  kcat: 0.38 ± 0.009 s⁻¹
  kcat/Km: 11000 M⁻¹ s⁻¹
[3]
  Km: 7800 ± 1000 µM
  kcat: 0.4 ± 0.02 s⁻¹
  kcat/Km: 51 M⁻¹ s⁻¹
